Source: paper PMC7688924, “α-Galactosidase and Sucrose-Kinase Relationships in a Bi-functional AgaSK Enzyme Produced by the Human Gut Symbiont Ruminococcus gnavus E1” (Frontiers in Microbiology, 2020)

Experiments:
[1] = substrate: Nc1ncnc2c1ncn2[C@@H]1O[C@H](COP(=O)(O)OP(=O)(O)OP(=O)(O)O)[C@@H](O)[C@H]1O; assay: bioluminescence ATP consumption assay (luciferin/luciferase); format: biochemical, Mediterraneibacter gnavus; settings: sucrose 5 mM, pH 8.0, 30 °C, ATP 0-10 mM, […] enzyme
Text: bioluminescence ATP consumption assay (luciferin/luciferase) on RgSK

purified protein = substrate: O=[N+]([O-])c1ccc(O[C@H]2O[C@H](CO)[C@H](O)[C@H](O)[C@H]2O)cc1; assay: purified protein; settings: McIlvaine's buffer pH 6.0, 42 °C, pNPGal 0.078-10 mM
[2] = substrate: Nc1ncnc2c1ncn2[C@@H]1O[C@H](COP(=O)(O)OP(=O)(O)OP(=O)(O)O)[C@@H](O)[C@H]1O; assay: bioluminescence ATP consumption assay (luciferin/luciferase); format: biochemical, Mediterraneibacter gnavus; settings: sucrose 5 mM, pH 8.0, 30 °C, ATP 0-10 mM, […] enzyme; remark: listed apart in the source
Text: bioluminescence ATP consumption assay (luciferin/luciferase) on […]

Row | Protein | Km [1] | Vmax [1] | kcat [1] | kcat/Km [1] | Km (purified protein) | Vmax (purified protein) | kcat (purified protein) | kcat/Km (purified protein) | Km [2] | Vmax [2] | kcat [2] | kcat/Km [2]
1 | RgSK (Mediterraneibacter gnavus) (protein, isolated C-terminal sucrose kinase domain, Arg-724 to Gln-935, C-terminal His6 tag, E. coli BL21(DE3), pOPINE, 23,898 Da) RLYEKVQKWCDGNAENRVVISIYGGSGSGKTTLATALQQYFLNDGTECYLLSGDDYPHRIPKRNDEERMRVYKEAGEDGLRGYLGTKKEIDFDRINEVLAAFHEGKDSITLRHMGREDGEISLEETDFSGISVLLLEWTHGGSDDLHGVDLPVFLESSPGETRERRIRRNRDENAASPFICRVVELEQEKLEVQRKNAGLIVGKDGSVYEQ | 6.3 ± 1.8 mM | 0.0719 µmol/min | 27.9 ± 4.3 s⁻¹ | 4420 M⁻¹ s⁻¹ |  |  |  |  |  |  |  | 
2 | RgAga (Mediterraneibacter gnavus) (protein) AIIYNPNKKIFTLHTAHTTYQMQVDPLGYLLHLYYGEKTNSSMDYVLTYADRGFSGNPYAAGMDRTYSLDALPQEYPSLGTGDYRNIALNIKNEKGVESADLLFKSYEIRNGKYRLQGLPAVWADEKEAQTLEIVLADENAQVEVHLLYGVLEENDVITRSVRIKNTGTGQITIEKAAAACLDFVQGEFDVLRFYGKHAMERNLERTPLGHGTIAFGSRRGTSSHQYNPAVILAEKGTTETAGSCYGMLFVYSGNFSCEAEKDQFNQTRLLLGLNEELFSYPLASGETFTVPEVILSYSAEGLSALSQQYHNCIRNHVCRSKYVHMQRPVLINSWEAAYFDFTGDTIVDLAKEAASLGIDMVVMDDGWFGKRNDDNSSLGDWQVNETKLGGSLAELITRVHEQGMKFGIWIEPEMINEDSDLYRAHPDWAIRIQGKKPVRSRNQLLLDFSRKEVRDCVFDQICVVLDQGKIDYVKWDMNRSMADVYAGNLSYDYVLGVYDFMERLCSRYPDLLLEGCSGGGGRFDAGMLYYSPQIWCSDNTDAINRTRIQYGTSFFYPVSAMGAHVSAVPNHQTGRVTSFHTRGVTAMAGTFGYELNPALLSDEEKQQIREQIKTYKKYETLINEGTYWRLSDPFTDEIAAWMSVSEEQDHALVSVVRLMAEANQATVYVRLRGLKPDAVYLEEQSGRQYSGAALMHAGIPLPPFTEEYEAYQFAFTELK |  |  |  |  | 1.2 ± 0.2 mM | 0.236 µmol/min | 827 s⁻¹ | 689000 M⁻¹ s⁻¹ |  |  |  | 
3 | RgAgaSK (Mediterraneibacter gnavus) (protein, full-length bifunctional enzyme (935 residues), produced in E. coli as in Bruel 2011, Ni-NTA and gel filtration, His-tag (C-terminal 6xHis given for recombinant proteins), tetramer) MAIIYNPNKKIFTLHTAHTTYQMQVDPLGYLLHLYYGEKTNSSMDYVLTYADRGFSGNPYAAGMDRTYSLDALPQEYPSLGTGDYRNIALNIKNEKGVESADLLFKSYEIRNGKYRLQGLPAVWADEKEAQTLEIVLADENAQVEVHLLYGVLEENDVITRSVRIKNTGTGQITIEKAAAACLDFVQGEFDVLRFYGKHAMERNLERTPLGHGTIAFGSRRGTSSHQYNPAVILAEKGTTETAGSCYGMLFVYSGNFSCEAEKDQFNQTRLLLGLNEELFSYPLASGETFTVPEVILSYSAEGLSALSQQYHNCIRNHVCRSKYVHMQRPVLINSWEAAYFDFTGDTIVDLAKEAASLGIDMVVMDDGWFGKRNDDNSSLGDWQVNETKLGGSLAELITRVHEQGMKFGIWIEPEMINEDSDLYRAHPDWAIRIQGKKPVRSRNQLLLDFSRKEVRDCVFDQICVVLDQGKIDYVKWDMNRSMADVYAGNLSYDYVLGVYDFMERLCSRYPDLLLEGCSGGGGRFDAGMLYYSPQIWCSDNTDAINRTRIQYGTSFFYPVSAMGAHVSAVPNHQTGRVTSFHTRGVTAMAGTFGYELNPALLSDEEKQQIREQIKTYKKYETLINEGTYWRLSDPFTDEIAAWMSVSEEQDHALVSVVRLMAEANQATVYVRLRGLKPDAVYLEEQSGRQYSGAALMHAGIPLPPFTEEYEAYQFAFTELKEAGRLYEKVQKWCDGNAENRVVISIYGGSGSGKTTLATALQQYFLNDGTECYLLSGDDYPHRIPKRNDEERMRVYKEAGEDGLRGYLGTKKEIDFDRINEVLAAFHEGKDSITLRHMGREDGEISLEETDFSGISVLLLEWTHGGSDDLHGVDLPVFLESSPGETRERRIRRNRDENAASPFICRVVELEQEKLEVQRKNAGLIVGKDGSVYEQ |  |  |  |  | 1.3 ± 0.2 mM | 0.179 µmol/min | 626 s⁻¹ | 481000 M⁻¹ s⁻¹ | 8.4 ± 1.9 mM | 0.0983 µmol/min | 38.1 ± 4.8 s⁻¹ | 4530 M⁻¹ s⁻¹
